Results taken from article PMC3620106, “One-Step Chromatographic Purification of Helicobacter pylori Neutrophil-Activating Protein Expressed in Bacillus subtilis” (PLoS ONE, 2013).

Molecular target: the molecule itself
Assay: AUC; sedimentation velocity, HP-NAP at 0.3 mg/ml in D-PBS, pH 7.2, 41,000 rpm, 20°C, SEDFIT c(s); monomer mass by LC-MS

B1: Helicobacter pylori neutrophil-activating protein (HP-NAP), recombinant, expressed in Bacillus subtilis (natural protein)
chain: MKTFEILKHLQADAIVLFMKVHNFHWNVKGTDFFNVHKATEEIYEEFADMFDDLAERIVQLGHHPLVTLSEAIKLTRVKEETKTSFHSKDIFKEILEDYKYLEKEFKELSNTAEKEGDKVTVTYADDQLAKLQKSIWMLQAHLA
notes: monomer 16.934 kDa by LC-MS (theoretical 16.933 kDa); napA was cut from pET28a-His-NAP with NdeI and XhoI and cloned into pRPA; The measured monomer mass (16.934 kDa) fits the theoretical mass of the whole untagged protein (16.933 kDa); also called recombinant HP-NAP; purified HP-NAP; source: B. subtilis DB104 harboring pRPA-NAP; copies: 12
- stoichiometry N: 12
